Assay results published in article PMC11466968.
Each block holds one substance with its values, some of them ahead of it.

What was measured:
BAG3 = BAG3 (UniProt O95817); assay: co-immunoprecipitation; settings: sites T287
HRI = HRI (UniProt Q9BQI3); assay: co-immunoprecipitation with anti-FLAG antibody; settings: reference: wild type BAG3-FLAG; sites S173,S377,S386

binding against the reference (BAG3; reference: wild type CaMKIIδ): weaker
Substance: CaMKIIδ (from UniProt Q13557) CaMKIIδ T287A

binding against the reference (HRI): weaker
Substance: BAG3 (from UniProt O95817) BAG3 3A (S173A/S377A/S386A)

binding against the reference (BAG3; reference: wild type CaMKIIβ): weaker
Substance: CaMKIIβ (from UniProt Q13554) CaMKIIβ T287A
